The values that follow come from US20090081195.

This series has as its system SLK (construct not stated).

Sequence of SLK (construct not stated) (chain, as listed by the source): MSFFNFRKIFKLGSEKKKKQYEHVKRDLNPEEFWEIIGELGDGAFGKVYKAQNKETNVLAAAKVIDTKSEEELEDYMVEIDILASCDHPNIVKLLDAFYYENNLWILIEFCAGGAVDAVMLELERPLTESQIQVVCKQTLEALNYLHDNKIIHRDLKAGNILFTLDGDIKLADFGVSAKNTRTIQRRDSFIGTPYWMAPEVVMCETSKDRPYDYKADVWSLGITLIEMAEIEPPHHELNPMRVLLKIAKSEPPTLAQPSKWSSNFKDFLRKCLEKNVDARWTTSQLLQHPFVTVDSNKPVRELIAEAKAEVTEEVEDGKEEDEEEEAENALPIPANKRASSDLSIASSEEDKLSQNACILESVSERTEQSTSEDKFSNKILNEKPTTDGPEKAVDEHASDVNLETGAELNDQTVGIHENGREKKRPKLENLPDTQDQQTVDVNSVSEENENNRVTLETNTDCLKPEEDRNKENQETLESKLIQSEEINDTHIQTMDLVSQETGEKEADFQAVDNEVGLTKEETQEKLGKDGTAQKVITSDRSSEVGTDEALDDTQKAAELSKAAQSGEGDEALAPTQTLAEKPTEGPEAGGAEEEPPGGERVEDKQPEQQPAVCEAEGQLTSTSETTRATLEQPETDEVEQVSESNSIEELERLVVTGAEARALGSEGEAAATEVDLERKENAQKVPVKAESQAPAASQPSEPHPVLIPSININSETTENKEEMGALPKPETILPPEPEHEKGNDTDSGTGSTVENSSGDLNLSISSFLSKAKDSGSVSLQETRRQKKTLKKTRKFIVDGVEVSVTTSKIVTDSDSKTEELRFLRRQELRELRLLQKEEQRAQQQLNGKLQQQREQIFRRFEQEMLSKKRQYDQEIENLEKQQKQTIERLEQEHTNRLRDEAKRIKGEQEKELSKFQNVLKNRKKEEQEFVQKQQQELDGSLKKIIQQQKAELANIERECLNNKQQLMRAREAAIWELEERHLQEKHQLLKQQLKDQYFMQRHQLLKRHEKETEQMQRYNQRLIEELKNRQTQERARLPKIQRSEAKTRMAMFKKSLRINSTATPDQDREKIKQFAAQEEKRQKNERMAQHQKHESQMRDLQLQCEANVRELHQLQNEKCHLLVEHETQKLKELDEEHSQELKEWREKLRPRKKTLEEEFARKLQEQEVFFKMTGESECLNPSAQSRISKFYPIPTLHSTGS

Consider “nm23 (nucleoside diphosphate kinase; NDPK)”, for which the “SLK activity in vitro (kinase assay, autophosphorylation)” value was “nm23 is not a substrate for SLK but rather inhibits its activity in vitro through direct interaction”.
